The record followed here is PMC10286459, “The development of an anti-cancer peptide M1-21 targeting transcription factor FOXM1” (Cell & Bioscience, 2023).

Non-standard residues stand in square brackets, D forms with d. No end group written: not given here.

Experiment [1] addresses T1, GFP-FOXM1(688-748) (human).
T1 construct: also called GFP-M1(688–748); FOXM1 C-terminus
T1 sequence (Q08050 688-748, looked up): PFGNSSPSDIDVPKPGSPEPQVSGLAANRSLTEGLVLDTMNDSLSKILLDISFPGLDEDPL
Nature of the experiment: MST.

Experiment [2] has as its target T2, GFP-FOXM1(1-138) (human, UniProt Q08050 1-138).
T2 construct: also called GFP-M1(1-138); FOXM1 N-terminal domain
T2 sequence (looked up): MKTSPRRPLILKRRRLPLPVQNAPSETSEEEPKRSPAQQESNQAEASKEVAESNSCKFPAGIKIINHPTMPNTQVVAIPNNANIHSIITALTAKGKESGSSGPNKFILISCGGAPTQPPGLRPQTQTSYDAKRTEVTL
Nature of the experiment: MST.

The target in experiment [3] is T3, GFP-FOXM1(232-332) (human, UniProt Q08050-3 232-332).
T3 construct: also called GFP-M1(232–332); FOXM1 DBD
T3 sequence (looked up): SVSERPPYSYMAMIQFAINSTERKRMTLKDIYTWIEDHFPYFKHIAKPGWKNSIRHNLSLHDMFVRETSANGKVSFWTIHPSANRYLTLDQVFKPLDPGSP
Put plainly: MST.

Experiment [4] has as its target T4, GFP-FOXM1 (human, UniProt Q08050-3 1-801).
T4 sequence (looked up): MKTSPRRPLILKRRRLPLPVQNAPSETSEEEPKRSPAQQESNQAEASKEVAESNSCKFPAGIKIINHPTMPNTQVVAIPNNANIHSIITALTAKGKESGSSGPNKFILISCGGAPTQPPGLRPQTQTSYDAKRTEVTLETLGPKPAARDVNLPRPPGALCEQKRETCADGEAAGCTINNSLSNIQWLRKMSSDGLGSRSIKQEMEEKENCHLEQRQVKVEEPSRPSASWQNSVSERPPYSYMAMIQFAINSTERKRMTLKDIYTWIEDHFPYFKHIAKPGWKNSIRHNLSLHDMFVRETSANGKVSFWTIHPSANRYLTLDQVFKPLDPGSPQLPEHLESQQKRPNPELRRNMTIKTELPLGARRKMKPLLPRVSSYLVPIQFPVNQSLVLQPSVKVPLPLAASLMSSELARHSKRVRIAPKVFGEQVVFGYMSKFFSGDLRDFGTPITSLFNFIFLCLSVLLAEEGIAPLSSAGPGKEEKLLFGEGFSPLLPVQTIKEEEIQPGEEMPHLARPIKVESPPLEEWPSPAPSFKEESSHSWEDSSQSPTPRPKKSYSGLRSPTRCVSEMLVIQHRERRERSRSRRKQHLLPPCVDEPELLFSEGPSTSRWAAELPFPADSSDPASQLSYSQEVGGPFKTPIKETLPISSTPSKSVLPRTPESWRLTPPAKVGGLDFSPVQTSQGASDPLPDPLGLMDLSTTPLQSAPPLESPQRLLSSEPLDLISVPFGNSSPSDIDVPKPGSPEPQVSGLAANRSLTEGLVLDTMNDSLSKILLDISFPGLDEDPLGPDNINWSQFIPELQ
Nature of the experiment: MST.

In experiment [5] the target is T5, endogenous FOXM1 protein (human (endogenous in 293T and …, UniProt Q08050 1-763)).
T5 sequence (looked up): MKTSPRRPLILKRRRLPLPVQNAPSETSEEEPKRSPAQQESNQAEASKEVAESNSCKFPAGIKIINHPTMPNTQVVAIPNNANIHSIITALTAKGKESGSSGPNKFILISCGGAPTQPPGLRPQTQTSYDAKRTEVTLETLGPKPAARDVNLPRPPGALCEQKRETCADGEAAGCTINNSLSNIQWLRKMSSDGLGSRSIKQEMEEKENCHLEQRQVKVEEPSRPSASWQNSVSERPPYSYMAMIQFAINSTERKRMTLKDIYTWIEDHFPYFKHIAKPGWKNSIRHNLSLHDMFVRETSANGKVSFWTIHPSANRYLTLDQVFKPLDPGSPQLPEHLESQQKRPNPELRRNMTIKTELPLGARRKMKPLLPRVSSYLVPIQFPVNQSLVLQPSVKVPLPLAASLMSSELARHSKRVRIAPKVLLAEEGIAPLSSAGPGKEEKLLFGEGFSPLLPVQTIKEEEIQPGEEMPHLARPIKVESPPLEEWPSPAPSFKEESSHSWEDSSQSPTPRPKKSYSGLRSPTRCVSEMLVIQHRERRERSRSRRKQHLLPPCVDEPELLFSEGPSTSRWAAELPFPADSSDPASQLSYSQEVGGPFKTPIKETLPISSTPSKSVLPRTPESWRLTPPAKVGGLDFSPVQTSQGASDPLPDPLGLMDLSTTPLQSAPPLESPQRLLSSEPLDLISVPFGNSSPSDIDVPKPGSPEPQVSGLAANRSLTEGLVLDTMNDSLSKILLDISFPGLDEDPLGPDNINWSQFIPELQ
Nature of the experiment: cell-based or functional assay.

B1: M1-21 (peptide)
chain: [dQ][dT][dQ][dP][dR][dL]G[dP][dP][dQ][dT][dP][dA]GG[dC][dS][dI][dL][dI][dF]
modifications: not fully specified; also: retro-inverso, chain direction relative to parent not given here
In the case of B1, the Kd (as a rule, the free concentration of one partner at which half of the binding sites on the other are occupied at equilibrium, for simple one-to-one binding) in experiment [1] worked out at 1.79 µM; in experiment [2] it was 6.27 µM; in experiment [3], 5.71 µM; in experiment [4] it was 12.5 µM. In addition, the “IC50 of cell viability, MDA-MB-231 cells, 48 h (trypan blue)” value in experiment [5] was determined as 33.8 µM.
